In publication PMC9169791 (Proceedings of the National Academy of Sciences of the …, 2022):

Target: T1, GST-DDRM1 (Arabidopsis thaliana, UniProt Q9ZW89 1-453)
T1 sequence (looked up): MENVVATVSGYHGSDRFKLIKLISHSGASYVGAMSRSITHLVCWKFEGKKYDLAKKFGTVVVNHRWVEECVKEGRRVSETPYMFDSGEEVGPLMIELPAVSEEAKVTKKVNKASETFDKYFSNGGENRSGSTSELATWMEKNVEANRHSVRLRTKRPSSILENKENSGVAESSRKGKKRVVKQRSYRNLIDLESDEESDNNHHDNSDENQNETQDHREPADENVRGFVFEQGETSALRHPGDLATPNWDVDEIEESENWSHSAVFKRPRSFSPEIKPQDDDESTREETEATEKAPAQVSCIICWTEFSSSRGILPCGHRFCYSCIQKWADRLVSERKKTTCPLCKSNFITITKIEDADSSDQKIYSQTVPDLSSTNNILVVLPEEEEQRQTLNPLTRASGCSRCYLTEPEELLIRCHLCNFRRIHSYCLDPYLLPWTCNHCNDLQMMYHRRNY
Assay: pull-down

- binding result: binds
B1: MBP-SOG1 (natural protein, Arabidopsis thaliana, UniProt Q6NQK2 1-449, looked up)
chain: MAGRSWLIDSNRIATKIMSASASSDPRQVVWKSNPSRHCPKCQHVIDNSDVVDDWPGLPRGVKFDPSDPEIIWHLLAKSGLSGLSSHPFIDEFIPTVNQDDGICYTHPKNLPGVKSDGTVSHFFHKAIKAYSTGTRKRRKIHDDDFGDVRWHKTGRTKPVVLDGVQRGCKKIMVLYGGKAVKTNWVMHQYHLGIEEDEKEGDYVVSKIFYQQPQQLVVKRGDKAEQEVSEDIFAAVTPTADPVTPKLATPEPRNAVRICSDSHIASDYVTPSDYVSAHEVSLAETSEVMCMEDEVQSIQPNHERPSSGPELEHGLENGAKEMLDDKEEQEKDRDNENQGEEDPTWFDSGSQFILNSQQLVEALSLCDDLLGSQDREENTNSGSLKDKQPCIADYAHLGPEDFKRDLEECQKIVLDPSNIELDTPPEFRLSQLEFGSQDSFLAWGTGKTD
